# Results reported in PMC2680917 (Cell, 2009).
# B1: Homer3CC2 (287 – carboxy-terminus of Homer3a) (domain or fragment, human, UniProt Q9NSC5 287-361, looked up)
# chain: AAEREETQQKVQDLETRNAELEHQLRAMERSLEEARAERERARAEVGRAAQLLDVSLFELSELREGLARLAEAAP
# Experiments:
# Homer1b (rat) = test: AUC
# Shank1CΔPEST = test: co-sedimentation
# [1] = target: Homer1b I332R/I337E (rat); test: AUC
# Homer1bΔ329 (rat) = test: AUC
# crystal structure = target: the molecule itself; test: crystal structure
molecule,measurement,setting,value
Homer1b (natural protein),stoichiometry N,Homer1b (rat),4.2 mer
same,percent precipitated,Shank1CΔPEST,50%
same,stoichiometry N (Homer:Shank molar ratio),Shank1CΔPEST,1
Homer1b I332R/I337E (natural protein),stoichiometry N,[1],2 mer
Homer1bΔ329 (domain or fragment),stoichiometry N,Homer1bΔ329 (rat),2.1 mer
B1,binding result,crystal structure,binds
